Measured values taken from paper PMC9300677.

Key:
[1] = biological target: microtubules of Tuba4aΔpolyGlu (p/p) mice, containing mutant Tuba4a without C-terminal polyglutamylation (mouse (endogenous in hippocampal neurons and hippocampus)) (UniProt P68368); assay: soluble-tubulin extraction assay (TX-100 extraction); DIV15 hippocampal neurons extracted 90 s at 37 °C in MT-extraction buffer (80 mM PIPES pH 6.9, 0.3% Triton X-100, 150 mM NaCl); soluble and in-soluble (polymerized microtubules with associated MAPs) fractions compared by western blot
Chain of UniProt P68368 (P68368 whole entry, looked up, stated change not applied): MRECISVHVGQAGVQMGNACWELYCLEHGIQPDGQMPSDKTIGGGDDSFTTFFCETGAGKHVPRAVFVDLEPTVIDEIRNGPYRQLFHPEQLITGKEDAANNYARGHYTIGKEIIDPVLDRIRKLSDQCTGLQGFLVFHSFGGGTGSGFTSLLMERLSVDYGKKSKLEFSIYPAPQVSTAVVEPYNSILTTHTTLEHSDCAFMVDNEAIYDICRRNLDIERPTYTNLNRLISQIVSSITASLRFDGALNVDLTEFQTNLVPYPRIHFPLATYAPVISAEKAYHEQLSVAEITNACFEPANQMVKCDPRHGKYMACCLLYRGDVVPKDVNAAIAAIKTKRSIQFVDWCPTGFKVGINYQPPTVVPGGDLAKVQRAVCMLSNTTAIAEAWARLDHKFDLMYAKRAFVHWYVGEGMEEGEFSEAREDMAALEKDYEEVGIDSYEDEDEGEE

GSK3α = GSK3α (UniProt Q2NL51); assay: microtubule pelleting assay, western blot quantification; details: re-polymerization of hippocampal tubulin from adult mice; n = 3 mice per genotype; parent: est. 0.30; read off a plot
Chain of UniProt Q2NL51 (Q2NL51 whole entry, looked up): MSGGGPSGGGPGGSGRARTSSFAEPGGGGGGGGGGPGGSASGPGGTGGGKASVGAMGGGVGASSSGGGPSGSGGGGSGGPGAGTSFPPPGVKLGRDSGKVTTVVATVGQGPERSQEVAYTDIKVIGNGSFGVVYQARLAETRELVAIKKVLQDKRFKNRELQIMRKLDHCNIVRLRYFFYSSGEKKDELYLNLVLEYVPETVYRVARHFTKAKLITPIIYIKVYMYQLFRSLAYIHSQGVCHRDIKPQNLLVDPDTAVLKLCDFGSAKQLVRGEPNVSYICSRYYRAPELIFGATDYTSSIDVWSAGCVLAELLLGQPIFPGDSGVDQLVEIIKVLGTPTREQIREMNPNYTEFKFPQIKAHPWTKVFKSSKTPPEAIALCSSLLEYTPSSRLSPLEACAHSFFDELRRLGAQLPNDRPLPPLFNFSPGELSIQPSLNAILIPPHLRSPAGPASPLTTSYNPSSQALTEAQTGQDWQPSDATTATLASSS

GSK3β [2] = biological target: GSK3β (UniProt Q9WV60); assay: as above; details: re-polymerization of hippocampal tubulin from adult mice; n = 3 mice per genotype; parent: est. 0.40; read off a plot
Chain of UniProt Q9WV60 (Q9WV60 whole entry, looked up): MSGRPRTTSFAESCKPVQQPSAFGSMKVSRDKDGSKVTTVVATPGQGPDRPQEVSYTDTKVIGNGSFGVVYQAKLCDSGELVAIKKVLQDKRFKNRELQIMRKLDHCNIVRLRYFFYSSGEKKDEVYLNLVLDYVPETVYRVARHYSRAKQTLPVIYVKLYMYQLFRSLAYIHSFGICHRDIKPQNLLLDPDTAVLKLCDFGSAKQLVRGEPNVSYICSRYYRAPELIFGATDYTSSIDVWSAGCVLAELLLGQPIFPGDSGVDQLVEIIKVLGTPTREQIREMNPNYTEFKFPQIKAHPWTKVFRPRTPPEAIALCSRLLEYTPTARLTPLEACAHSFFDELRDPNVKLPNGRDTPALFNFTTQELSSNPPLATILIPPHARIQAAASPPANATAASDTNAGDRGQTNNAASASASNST

GSK3β [3] = biological target: GSK3β (UniProt Q9WV60); assay: soluble-tubulin extraction assay, western blot quantification; details: DIV15 neurons; n = 4 independent cultures per genotype; parent: est. 1.5; read off a plot

reduction of co-occurrence with microtubules in the in-soluble fraction against wild type (+/+) [1] [%] | other: pellet / supernatant ratio (GSK3α) | other: pellet / supernatant ratio (GSK3β [2]) | other: in-soluble / soluble ratio (GSK3β [3]) | Substance
> 50 |  |  |  | MAP2a/b (from UniProt P20357 1-1828) (natural protein)
> 50 |  |  |  | Tau (mouse, endogenous) (from UniProt P10637 1-733) (natural protein)
 | 0.15 | 0.15 | 0.73 | microtubules of wild-type (+/+) mice, containing polyglutamylated Tuba4a (from UniProt P68368;Q9ERD7) Tuba4aΔpolyGlu (p/p)
